From patent US20220267442A1 come the findings set out here.

This experiment concerns the target TGFβ1 (human) (UniProt P01137). Briefly: SPR. Background: Surface plasmon resonance follows binding to a sensor surface in real time, without labels.

Sequence of TGFβ1 (human) (P01137 279-390): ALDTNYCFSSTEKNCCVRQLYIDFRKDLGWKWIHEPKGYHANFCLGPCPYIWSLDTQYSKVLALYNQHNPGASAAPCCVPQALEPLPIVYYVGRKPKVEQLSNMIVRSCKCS

One may read the Kd as the constant that tells how readily two partners part at equilibrium. The low end stands for higher affinity, the high end for lower affinity. αTGF-β (1D11): the equilibrium dissociation constant (Kd) came out at 26.6 nM.
